Reference: patent publication US20180118808A1 (CALIFORNIA INSTITUTE FOR BIOMEDICAL RESEARCH, published 2018)

T1: E4 Chimeric Receptor
T1 chain: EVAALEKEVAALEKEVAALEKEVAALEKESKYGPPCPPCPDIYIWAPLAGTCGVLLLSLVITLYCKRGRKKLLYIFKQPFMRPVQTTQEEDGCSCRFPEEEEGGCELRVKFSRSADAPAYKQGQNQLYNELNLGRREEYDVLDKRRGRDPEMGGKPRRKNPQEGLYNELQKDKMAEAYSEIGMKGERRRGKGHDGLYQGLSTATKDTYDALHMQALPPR

T2: K4 Chimeric Receptor
T2 chain: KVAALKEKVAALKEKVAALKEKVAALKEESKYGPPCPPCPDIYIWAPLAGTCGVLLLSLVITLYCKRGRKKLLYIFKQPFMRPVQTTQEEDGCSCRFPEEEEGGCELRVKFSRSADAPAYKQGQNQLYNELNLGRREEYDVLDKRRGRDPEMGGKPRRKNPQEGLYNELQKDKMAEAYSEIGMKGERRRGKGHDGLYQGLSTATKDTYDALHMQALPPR


Assays:
[1] = target: T1, E4 Chimeric Receptor; experiment: cell-based or functional assay
[2] = target: T2, K4 Chimeric Receptor; experiment: cell-based or functional assay

Binder	EC50 (nM) of switch in cytotoxicity assay (LDH release), E4 CAR-T cells against CD19-positive Raji luc cells [1] [nM]	EC50 (nM) of switch in cytotoxicity assay (LDH release), K4 CAR-T cells against CD19-positive Raji luc cells [2] [nM]
Fmc63 HCCT K4 switch (Fab, V domains shown) VH: EVKLQESGPGLVAPSQSLSVTCTVSGVSLPDYGVSWIRQPPRKGLEWLGVIWGSETTYYNSALKSRLTIIKDNSKSQVFLKMNSLQTDDTAIYYCAKHYYYGGSYAMDYWGQGTSVTVSS VL: DIQMTQTTSSLSASLGDRVTISCRASQDISKYLNWYQQKPDGTVKLLIYHTSRLHSGVPSRFSGSGSGTDYSLTISNLEQEDIATYFCQQGNTLPYTFGGGTKLEIKR	0.00432	
Fmc63 HCCT E4 switch (Fab, V domains shown) VH: EVKLQESGPGLVAPSQSLSVTCTVSGVSLPDYGVSWIRQPPRKGLEWLGVIWGSETTYYNSALKSRLTIIKDNSKSQVFLKMNSLQTDDTAIYYCAKHYYYGGSYAMDYWGQGTSVTVSS VL: DIQMTQTTSSLSASLGDRVTISCRASQDISKYLNWYQQKPDGTVKLLIYHTSRLHSGVPSRFSGSGSGTDYSLTISNLEQEDIATYFCQQGNTLPYTFGGGTKLEIKR		0.0507
